Source: publication PMC2773007

Biological target: Dvl2 PRR2 mutant (Δ370–376), FLAG-tagged (human) (UniProt O14641)
Sequence of UniProt O14641 (O14641 other isoform, or with tags, fused parts or gaps mutant): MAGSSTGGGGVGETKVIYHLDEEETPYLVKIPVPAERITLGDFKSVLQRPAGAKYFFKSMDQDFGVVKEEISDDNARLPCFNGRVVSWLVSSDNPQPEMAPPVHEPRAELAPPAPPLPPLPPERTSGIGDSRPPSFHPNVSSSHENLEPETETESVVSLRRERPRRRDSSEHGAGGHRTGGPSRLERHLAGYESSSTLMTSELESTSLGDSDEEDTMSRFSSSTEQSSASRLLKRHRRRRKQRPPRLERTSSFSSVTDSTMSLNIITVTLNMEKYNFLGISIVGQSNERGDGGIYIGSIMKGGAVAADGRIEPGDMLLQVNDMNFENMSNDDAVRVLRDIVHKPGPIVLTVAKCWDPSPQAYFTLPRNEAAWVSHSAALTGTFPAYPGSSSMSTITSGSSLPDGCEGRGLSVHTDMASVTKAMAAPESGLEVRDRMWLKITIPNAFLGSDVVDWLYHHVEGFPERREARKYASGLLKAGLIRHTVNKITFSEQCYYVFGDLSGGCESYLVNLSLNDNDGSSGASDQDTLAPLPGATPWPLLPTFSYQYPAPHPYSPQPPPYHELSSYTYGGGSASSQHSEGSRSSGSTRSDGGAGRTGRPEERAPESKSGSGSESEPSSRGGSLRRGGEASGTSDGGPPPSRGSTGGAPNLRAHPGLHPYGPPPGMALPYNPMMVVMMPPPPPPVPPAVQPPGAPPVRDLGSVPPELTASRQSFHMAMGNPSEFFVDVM

HA-tagged Grb2 (human growth factor receptor-bound-2) (from UniProt P62993 1-217) (natural protein)
sTF LEF/TCF luciferase reporter in HEK293 cells, co-expression of the Dvl2 mutant and Grb2: 60 % decrease
